Assay [1] deals with T1, Human Factor P (human, UniProt P27918 29-469). Put plainly: cell-based or functional assay.
Assay [2] concerns the target Cynomolgus Factor P (cynomolgus). Description: cell-based or functional assay.
Assay [3] deals with T1, Human Factor P. Put plainly: SET, solution equilibrium titration. The method, then:
(§1) In SET, a constant amount of antibody is incubated with different concentrations of antigen until equilibrium is reached. The concentration of free antibody in the equilibrated solution is determined by applying the solution on an antigen coated MSD™ plate (Meso Scale Discovery™) followed by incubation with an ECL-labeled secondary antibody and measurement of signal intensity. At low antigen concentrations, a strong signal is achieved (high concentration of free antibody which binds to the antigen on the plate) whereas for high antigen concentration, the antibody is completely antigen-captured, resulting in a low signal. If a sufficient number of antigen concentrations in a matching range are available, the titration curve allows for a reasonable determination of the affinity, using the appropriate fit model. […] The constant concentration of antibody applied in the assay should be in the range of, or below, the KD (Table 4).
(§2) Human Factor P (Complement Technology cat#: A139) and Cyno Factor P purified from cyno serum (protocol adapted from Nakano, et al., (1986) J Immunol Methods 90:77-83) were coated on standard binding MSD plates (Meso-Scale Discovery, 384-well: MSD cat#: L21XA, 96-well: MSD cat#: L15XA) at 0.2-0.3 μg/ml in 25 μl PBS and incubated overnight at 4° C. Factor P inhibitors were diluted to a fixed concentration (1 pM or 10 pM) in incubation buffer (PBS with 2% BSA (Sigma cat#: A4503) and 1% Tween20 and 1% Triton-X (Sigma cat#: 234729)), and added to a serial dilution of Factor P (human or cyno) in incubation buffer. Samples were allowed to reach equilibrium by incubation at RT overnight. Plates were washed 3× in wash buffer (PBS with 0.05% Tween20), and blocked with 100 μl incubation buffer at RT for 2 hrs. Plates were washed 3× in wash buffer. Sample containing Factor P inhibitors and Factor P titration were added to the plate (25 μl), and incubated at RT for 15 min. Plates were washed 3× in wash buffer. 25 μl detection antibody was added (Anti-Human (Goat) Sulfo-TAG, 1:1000 in incubation buffer, MSD cat#: R32AJ-1), and incubated at RT for 60 min. Plates were washed 3× in wash buffer, and 50 μl of 1×MSD Read buffer T was added (with surfactant, MSD cat#: R92TC-1). Plates were read on a MSD Spector Imager 6000.

Assay [4] has as its target T2, Cynomolgus Factor P (cynomolgus).
T2 construct: Purified from cynomolgus serum for SET/Biacore; Factor P of cynomolgus serum in the functional assays; also called Cyno Factor P; cyno FP
Put plainly: SET, solution equilibrium titration. The method, then: as §1, §2

The target in assay [5] is T1, Human Factor P. Description: Biacore SPR, captured Factor P. In general terms: SPR reads the build-up and loss of mass on a sensor chip optically.
In assay [6] the target is T2, Cynomolgus Factor P. Put plainly: Biacore SPR, captured Factor P.

T1 sequence (P27918 29-469 limits assumed): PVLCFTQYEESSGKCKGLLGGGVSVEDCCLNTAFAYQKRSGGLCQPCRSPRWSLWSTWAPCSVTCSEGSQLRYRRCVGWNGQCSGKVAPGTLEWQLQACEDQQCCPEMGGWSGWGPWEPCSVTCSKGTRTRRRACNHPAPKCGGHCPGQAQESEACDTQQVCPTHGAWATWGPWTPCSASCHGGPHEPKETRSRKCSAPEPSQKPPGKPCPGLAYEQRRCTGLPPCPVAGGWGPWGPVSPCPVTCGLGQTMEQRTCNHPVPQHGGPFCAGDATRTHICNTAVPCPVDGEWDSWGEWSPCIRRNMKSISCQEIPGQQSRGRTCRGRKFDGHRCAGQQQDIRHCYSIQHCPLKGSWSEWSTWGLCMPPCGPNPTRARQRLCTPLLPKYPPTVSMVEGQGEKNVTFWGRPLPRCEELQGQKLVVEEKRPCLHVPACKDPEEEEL

B1: NVS962 (Fab, V domains shown)
VH: EVQLVQSGAEVKKPGSSVKVSCKASGGTFNSYAISWVRQAPGQGLEWMGRIIPIFGTANYAQKFQGRVTITADESTSTAYMELSSLRSEDTAVYYCARHGGYSFDSWGQGTLVTVSS
VL: SYELTQPPSVSVAPGQTARISCSGDNLGSKYVDWYQQKPGQAPVLVIYSDNNRPSGIPERFSGSNSGNTATLTISGTQAEDEADYYCQTYTSGNNYLVFGGGTKLTVLG
notes: also called Fab NVS962
On to B1, for which, in the assay with Human Factor P [1], the “Hemolytic assay IC50 (nM), 10% serum” value was 13.2 nM; the “Inhibition of C3a generation, 20% human serum” value came to 78.4 nM; the “MAC Deposition, 20% Serum EC50” value came out at 18.8 nM; the “Zymosan-C3b IC50 (nM), 10% serum” value is 2.63 nM. Moreover, in the assay with Cynomolgus Factor P [2], the “Hemolytic assay IC50 (nM), 10% serum” value turned out to be 16.1 nM; the “MAC Deposition, 20% Serum EC50” value turned out to be 12.1 nM; the “Zymosan-C3b IC50 (nM), 10% serum” value stood at 9.91 nM. Moreover, the Kd (in general, a measure of binding affinity in units of concentration) with Human Factor P [3] is 0.046 nM. In addition, the Kd in the assay with Cynomolgus Factor P [4] stood at 0.047 nM. In the assay with Human Factor P [5], the Kd was 0.083 nM; the koff – broadly, the rate constant with which the complex falls apart – was 0.000125 s⁻¹; the kon (as a rule, the rate constant with which the complex forms) came out at 1.52e+06 M⁻¹ s⁻¹. Besides, in the assay with Cynomolgus Factor P [6], the Kd was 0.182 nM, the koff worked out at 0.000279 s⁻¹ and the kon turned out to be 1.53e+06 M⁻¹ s⁻¹.

B2: NVS807 (Fab, V domains shown)
VH: EVQLVQSGAEVKKPGSSVKVSCKASGGTFSSYAISWVRQAPGQGLEWMGRIIPIFGTANYAQKFQGRVTITADESTSTAYMELSSLRSEDTAVYYCARHGGYYFDSWGQGTLVTVSS
VL: SYELTQPPSVSVAPGQTARISCSGDNLGSKYVDWYQQKPGQAPVLVIYSDNNRPSGIPERFSGSNSGNTATLTISGTQAEDEADYYCQTYTSGNNYLVFGGGTKLTVLG
With B2, in the assay with Human Factor P [1], the “Hemolytic assay IC50 (nM), 10% serum” value was determined as 12.9 nM and the “MAC Deposition, 20% Serum EC50” value stood at 5.4 nM. Besides, in the assay with Cynomolgus Factor P [2], the “Hemolytic assay IC50 (nM), 10% serum” value came out at 12.6 nM and the “MAC Deposition, 20% Serum EC50” value is 6.35 nM. Further, the Kd with Human Factor P [3] was found to be 0.027 nM. In the assay with Human Factor P [5], this molecule registered a Kd of 0.106 nM, a koff of 0.000123 s⁻¹ and a kon of 1.21e+06 M⁻¹ s⁻¹.

B3: NVS805 (Fab, V domains shown)
VH: EVQLVQSGAEVKKPGSSVKVSCKASGGTFSSYAISWVRQAPGQGLEWMGRIIPIFGTANYAQKFQGRVTITADESTSTAYMELSSLRSEDTAVYYCARHGGYVFDSWGQGTLVTVSS
VL: SYVLTQPPSVSVAPGKTARISCSGDNLGSKYVDWYQQKPGQAPVLVIYSDNNRPSGIPERFSGSNSGNTATLTISGTQAMDEADYYCATYDSSPRTEVFGGGTKLTVLG
As for B3, in the assay with Human Factor P [1], the “Hemolytic assay IC50 (nM), 10% serum” value turned out to be 12.8 nM and the “MAC Deposition, 20% Serum EC50” value amounted to 5.9 nM. Besides, in the assay with Cynomolgus Factor P [2], the “Hemolytic assay IC50 (nM), 10% serum” value came out at 22.1 nM and the “MAC Deposition, 20% Serum EC50” value amounted to 5.95 nM. The Kd in the assay with Human Factor P [3] came to 0.0003 nM. In the assay with Human Factor P [5], this molecule returned a dissociation constant (Kd) of 0.003 nM, a dissociation rate constant (koff) of 9.88e-06 s⁻¹ and a kon of 3.61e+06 M⁻¹ s⁻¹.

B4: NVS806 (Fab, V domains shown)
VH: EVQLVQSGAEVKKPGSSVKVSCKASGGTFSSYAISWVRQAPGQGLEWMGRIIPIFGTANYAQKFQGRVTITADESTSTAYMELSSLRSEDTAVYYCARHGGYVFDSWGQGTLVTVSS
VL: SYELTQPPSVSVAPGQTARISCSGDNLGSKYVDWYQQKPGQAPVLVIYSDNNRPSGIPERFSGSNSGNTATLTISGTQAEDEADYYCQTYTSGNNYLVFGGGTKLTVLG
For the molecule B4, in the assay with Human Factor P [1], the “Hemolytic assay IC50 (nM), 10% serum” value is 10.1 nM and the “MAC Deposition, 20% Serum EC50” value amounted to 5.74 nM. Further, in the assay with Cynomolgus Factor P [2], the “Hemolytic assay IC50 (nM), 10% serum” value stood at 13.9 nM and the “MAC Deposition, 20% Serum EC50” value came to 6.51 nM. The Kd with Human Factor P [3] worked out at 0.018 nM. In the assay with Human Factor P [5], the Kd turned out to be 0.052 nM, the koff came to 2.24e-05 s⁻¹ and the on-rate constant (kon) is 434000 M⁻¹ s⁻¹.

B5: NVS962-G (Fab, V domains shown)
VH: EVQLVQSGAEVKKPGSSVKVSCKASGGTFGSYAISWVRQAPGQGLEWMGRIIPIFGTANYAQKFQGRVTITADESTSTAYMELSSLRSEDTAVYYCARHGGYSFDSWGQGTLVTVSS
VL: SYELTQPPSVSVAPGQTARISCSGDNLGSKYVDWYQQKPGQAPVLVIYSDNNRPSGIPERFSGSNSGNTATLTISGTQAEDEADYYCQTYTSGNNYLVFGGGTKLTVLG
notes: NVS962 with heavy chain N30 replaced with glycine
Regarding B5, in the assay with Human Factor P [1], the “Hemolytic assay IC50 (nM), 10% serum” value turned out to be 13.4 nM; the “MAC Deposition, 20% Serum EC50” value was determined as 12.7 nM; the “Zymosan-C3b IC50 (nM), 10% serum” value was 1.18 nM. In the assay with Cynomolgus Factor P [2], the “Hemolytic assay IC50 (nM), 10% serum” value amounted to 14.2 nM; the “MAC Deposition, 20% Serum EC50” value stood at 9.27 nM; the “Zymosan-C3b IC50 (nM), 10% serum” value was determined as 2.94 nM. Moreover, the Kd with Human Factor P [3] is 0.953 nM. The Kd in the assay with Cynomolgus Factor P [4] was found to be 0.567 nM. For the same molecule, in the assay with Human Factor P [5], the Kd was 1.14 nM, the koff turned out to be 0.00044 s⁻¹ and the kon was found to be 387000 M⁻¹ s⁻¹. For the same molecule, in the assay with Cynomolgus Factor P [6], the affinity, expressed as Kd, was 1.08 nM; the koff was 0.000339 s⁻¹; the kon turned out to be 313000 M⁻¹ s⁻¹.

B6: NVS808 (Fab, V domains shown)
VH: EVQLVQSGAEVKKPGSSVKVSCKASGGTFSSYAISWVRQAPGQGLEWMGRIIPIFGTANYAQKFQGRVTITADESTSTAYMELSSLRSEDTAVYYCARHGGYIFDSWGQGTLVTVSS
VL: SYELTQPPSVSVAPGQTARISCSGDNLGSKYVDWYQQKPGQAPVLVIYSDNNRPSGIPERFSGSNSGNTATLTISGTQAEDEADYYCQTYTSGNNYLVFGGGTKLTVLG
For the molecule B6, in the assay with Human Factor P [1], the “Hemolytic assay IC50 (nM), 10% serum” value worked out at 13.3 nM and the “MAC Deposition, 20% Serum EC50” value was found to be 6.51 nM. In addition, in the assay with Cynomolgus Factor P [2], the “Hemolytic assay IC50 (nM), 10% serum” value was determined as 15.5 nM and the “MAC Deposition, 20% Serum EC50” value amounted to 8.38 nM. In addition, in the assay with Human Factor P [3], the Kd turned out to be 0.107 nM. In the assay with Human Factor P [5], this molecule displayed a Kd of 0.195 nM, a koff of 0.000154 s⁻¹ and a kon of 791000 M⁻¹ s⁻¹.

B7: NVS804 (Fab, V domains shown)
VH: EVQLVQSGAEVKKPGSSVKVSCKASGGTFSSYAISWVRQAPGQGLEWMGRIIPIFGTANYAQKFQGRVTITADESTSTAYMELSSLRSEDTAVYYCARHGGYIFDSWGQGTLVTVSS
VL: SYVLTQPPSVSVAPGKTARISCSGDNLGSKYVDWYQQKPGQAPVLVIYSDNNRPSGIPERFSGSNSGNTATLTISGTQAMDEADYYCATYDSSPRTEVFGGGTKLTVLG
On to B7, for which, in the assay with Human Factor P [1], the “Hemolytic assay IC50 (nM), 10% serum” value was determined as 12.4 nM and the “MAC Deposition, 20% Serum EC50” value turned out to be 5.85 nM. For the same molecule, in the assay with Cynomolgus Factor P [2], the “Hemolytic assay IC50 (nM), 10% serum” value was 14.4 nM and the “MAC Deposition, 20% Serum EC50” value came out at 8.51 nM. The Kd with Human Factor P [3] was 0.0008 nM. In the assay with Human Factor P [5], this molecule had a Kd of 0.005 nM, a koff of 1.29e-05 s⁻¹ and a kon of 2.72e+06 M⁻¹ s⁻¹.

B8: NVS809 (Fab, V domains shown)
VH: EVQLVQSGAEVKKPGSSVKVSCKASGGTFSSYAISWVRQAPGQGLEWMGRIIPIFGTANYAQKFQGRVTITADESTSTAYMELSSLRSEDTAVYYCARHGGYYFDSWGQGTLVTVSS
VL: SYVLTQPPSVSVAPGKTARISCSGDNLGSKYVDWYQQKPGQAPVLVIYSDNNRPSGIPERFSGSNSGNTATLTISGTQAMDEADYYCATYDSSPRTEVFGGGTKLTVLG
On to B8, for which, in the assay with Human Factor P [1], the “Hemolytic assay IC50 (nM), 10% serum” value came to 12.1 nM and the “MAC Deposition, 20% Serum EC50” value stood at 6.46 nM. In addition, in the assay with Cynomolgus Factor P [2], the “Hemolytic assay IC50 (nM), 10% serum” value came to 12.8 nM and the “MAC Deposition, 20% Serum EC50” value was determined as 5.9 nM. Further, in the assay with Human Factor P [3], the Kd was 0.0042 nM. In the assay with Human Factor P [5], the Kd came to 0.0247 nM, the koff was found to be 0.000104 s⁻¹ and the association rate constant (kon) was determined as 4.25e+06 M⁻¹ s⁻¹.
